Results reported in article doi:10.1101/2024.05.23.595491 (bioRxiv, 2024).
Values belong to the binder of their own block, whether it stands above or below them.

B3: GST-mGFP-SH3BP2-FLAG (natural protein)
chain: MAAEEMQWPVPMKAIGAQNLLTMPGGVAKAGYLHKKGGTQLQLLKWPLRFVIIHKRCIYYFKSSTSASPQGAFSLSGYNRVMRAAEETTSNNVFPFKIIHISKKHRTWFFSASSEDERKSWMAFVRREIGHFHEKKELPLDTSDSSSDTDSFYGAVERPIDISLSSYPMDNEDYEHEDEDDSYLEPDSPGPMKLEDALTYPPAYPPPPVPVPRKPAFSDLPRAHSFTSKSPSPLLPPPPPKRGLPDTGSAPEDAKDALGLRRVEPGLRVPATPRRMSDPPMSNVPTVPNLRKHPCFRDSVNPGLEPWTPGHGTSSVSSSTTMAVATSRNCDKLKSFHLSSRGPPTSEPPPVPANKPKFLKIAEEPSPREAAKFAPVPPVAPRPPVQKMPMPEATVRPAVLPRPENTPLPHLQRSPPDGQSFRGFSFEKARQPSQADTGEEDSDEDYEKVPLPNSVFVNTTESCEVERLFKATDPRGEPQDGLYCIRNSSTKSGKVLVVWDESSNKVRNYRIFEKDSKFYLEGEVLFASVGSMVEHYHTHVLPSHQSLLLRHPYGYAGPR

What was measured:
[1] = biological target: T1, SH3BP2-FLAG (full-length) (mouse, UniProt Q06649 1-559); experiment: co-IP
T1 sequence: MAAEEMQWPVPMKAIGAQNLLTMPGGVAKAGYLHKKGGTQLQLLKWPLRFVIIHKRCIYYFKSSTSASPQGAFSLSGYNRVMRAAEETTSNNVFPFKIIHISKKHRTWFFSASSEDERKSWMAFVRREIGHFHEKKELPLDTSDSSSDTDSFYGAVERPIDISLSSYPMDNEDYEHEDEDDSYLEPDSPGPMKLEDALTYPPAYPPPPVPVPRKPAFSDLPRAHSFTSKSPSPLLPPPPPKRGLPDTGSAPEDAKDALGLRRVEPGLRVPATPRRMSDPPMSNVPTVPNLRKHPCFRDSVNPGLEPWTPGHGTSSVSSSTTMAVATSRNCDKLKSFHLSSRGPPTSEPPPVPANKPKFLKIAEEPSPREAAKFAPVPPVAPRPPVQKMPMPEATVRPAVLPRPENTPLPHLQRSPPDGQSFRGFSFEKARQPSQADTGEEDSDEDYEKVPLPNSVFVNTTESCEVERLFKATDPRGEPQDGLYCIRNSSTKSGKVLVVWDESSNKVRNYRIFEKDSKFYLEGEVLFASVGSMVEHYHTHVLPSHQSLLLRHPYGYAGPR

GST-mGFP-SH3BP2-FLAG = biological target: B3; experiment: recruitment into protein droplets
sedimentation assay = biological target: the molecule itself; experiment: sedimentation assay

- binding result [1]: binds
B1: GST-cytAChRα (domain or fragment)
chain: NTHHRSPSTHIMPEWVRKVFIDTIPNIMFFSTMKRPSRDKQEKRIFTEDIDISDISGKPGPPPMGFHSPLIKHPEVKSAIEGVKYIAETMKSDQESNNAAEEWKYVAMVMDH

- binding result (GST-mGFP-SH3BP2-FLAG): binds
B2: GST-cytAChRα-mCherry (domain or fragment)
chain: NTHHRSPSTHIMPEWVRKVFIDTIPNIMFFSTMKRPSRDKQEKRIFTEDIDISDISGKPGPPPMGFHSPLIKHPEVKSAIEGVKYIAETMKSDQESNNAAEEWKYVAMVMDH

Binder: B3
- binding result (sedimentation assay): binds
